# Measurements from patent US20230227545A1 (published 2023).
# B1: 15N14A (antibody, human IgG1, lambda, V domains shown)
# VH: QVQLQESGPGLVKPSETLSLTCTVSGGSISSYYWTWIRQPAGKGLEWIGRIDSSGSSKYNPTLKSRVTMSVDTSKNQFSLKLSSVTAADTAVYYCARGDSGYDWAFDYWGQGTLVTVSS
# VL: QAVLTQPSSLSASPGASASLTCTLRSGINVGTYRIYWYQQKPGSPPQYLLSYKSDSDKQQGSGVPSRFSGSKDASANVGILLISGLQSEDEADYYCMIWHSSAWVFGGGTKLTVLG
# notes: Lambda light chain; also called 15N14A (anti-IL-1β) mAb [IgG1: YTE]
# Tests used:
# human IL-1β [1] = target: T1, human IL-1β (human, UniProt P01584 117-269); assay: cell-based or functional assay
# mouse IL-1β = target: T2, mouse IL-1β (mouse, UniProt P10749 118-269); assay: SPR, Biacore 8K, mAb captured on anti-human Fc chip, soluble IL-1β as analyte
# T2 construct: also called mouse IL-β
# T2 sequence (looked up): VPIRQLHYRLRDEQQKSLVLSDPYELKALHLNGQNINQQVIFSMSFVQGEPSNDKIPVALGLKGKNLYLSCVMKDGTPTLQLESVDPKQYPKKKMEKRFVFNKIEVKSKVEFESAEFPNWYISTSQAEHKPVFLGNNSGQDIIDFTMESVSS
# Procedure: (§1) Affinity assessment of 05H21A, 15N14A, and 08F17A against human IL-1β was performed by Surface Plasmon Resonance (SPR) using a Biacore 8k. Cross-reactivity of the same antibody panel was also assessed against cyno, mouse, rat and pig IL-1β.
# (§2) SPR is a label-free technique to study the strength of an interaction between two binding partners by measuring the change in mass upon complex formation and dissociation. Briefly, antibodies were immobilized on a sensor chip which was coupled with goat anti-human Fc (GAH-Fc C1 sensor chip). Soluble IL-1β was flowed over the immobilized antibody and association/dissociation responses were monitored. Kinetic information (on-rate and off-rate constants) were extracted by fitting sensorgrams to the 1:1 Langmuir model. Binding affinity (KD) were reported as the ratio of rate constants (koff/kₒₙ).
# pig IL-1β = target: T3, pig IL-1β (pig, UniProt P26889 115-267); assay: as above
# T3 construct: also called pig IL-β
# T3 sequence (looked up): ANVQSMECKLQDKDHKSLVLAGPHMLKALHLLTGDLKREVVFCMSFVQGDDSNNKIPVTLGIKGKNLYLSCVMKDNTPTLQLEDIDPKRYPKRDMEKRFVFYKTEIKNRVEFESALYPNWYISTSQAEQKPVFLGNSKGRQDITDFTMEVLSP
# Procedure: as §1, §2
# human IL-1β [2] = target: T1, human IL-1β; assay: cell-based or functional assay; remark: listed apart in the source
# cynomolgus IL-1β [3] = target: T4, cynomolgus IL-1β (cynomolgus macaque, UniProt P79182 117-268); assay: cell-based or functional assay
# T4 sequence (looked up): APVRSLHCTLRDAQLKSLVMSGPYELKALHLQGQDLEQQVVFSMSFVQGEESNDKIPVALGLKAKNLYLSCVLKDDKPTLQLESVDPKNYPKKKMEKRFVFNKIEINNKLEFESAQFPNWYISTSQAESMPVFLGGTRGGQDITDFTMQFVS
# human IL-1β [4] = target: T1, human IL-1β; assay: cell-based or functional assay; remark: listed apart in the source
# rat IL-1β = target: T5, rat IL-1β (rat, UniProt Q63264 117-268); assay: SPR, Biacore 8K, mAb captured on goat anti-human Fc C1 chip, soluble IL-1β as analyte, 1:1 Langmuir fit
# T5 construct: also called rat IL-β
# T5 sequence (looked up): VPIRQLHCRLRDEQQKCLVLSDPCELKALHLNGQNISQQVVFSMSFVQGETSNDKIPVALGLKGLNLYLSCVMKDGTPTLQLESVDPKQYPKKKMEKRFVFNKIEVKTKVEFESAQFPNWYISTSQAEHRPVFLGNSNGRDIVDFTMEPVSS
# Procedure: as §1, §2
# cynomolgus IL-1β [5] = target: T4, cynomolgus IL-1β; assay: as above
# Procedure: as §1, §2
# human IL-1β [6] = target: T1, human IL-1β; assay: as above
# Procedure: as §1, §2
binder,measurement,setting,value
B1,"IC30, inhibition of rhIL-1β-induced cytokine release, NHDF donor 29114",human IL-1β [1],0.069 nM
same,"IC30, inhibition of rhIL-1β-induced cytokine release, NHLF donor 34325",human IL-1β [1],0.128 nM
same,"IC30, inhibition of rhIL-1β-induced cytokine release, NHLF donor 35234",human IL-1β [1],0.09 nM
same,"IC50, inhibition of rhIL-1β-induced cytokine release, NHDF donor 29114",human IL-1β [1],0.127 nM
same,"IC50, inhibition of rhIL-1β-induced cytokine release, NHLF donor 34325",human IL-1β [1],0.253 nM
same,"IC50, inhibition of rhIL-1β-induced cytokine release, NHLF donor 35234",human IL-1β [1],0.178 nM
same,"IC90, inhibition of rhIL-1β-induced cytokine release, NHDF donor 29114",human IL-1β [1],0.626 nM
same,"IC90, inhibition of rhIL-1β-induced cytokine release, NHLF donor 34325",human IL-1β [1],1.48 nM
same,"IC90, inhibition of rhIL-1β-induced cytokine release, NHLF donor 35234",human IL-1β [1],1.04 nM
same,binding result,mouse IL-1β,no binding
same,binding result,pig IL-1β,no binding
same,"IC30, inhibition of IL-6 release, human PBMCs (n=5 donors), 10 pM rhIL-1β",human IL-1β [2],32 pM
same,"IC30, inhibition of IL-6 release, human PBMCs (n=5 donors), 30 pM rhIL-1β",human IL-1β [2],75 pM
same,"IC50, inhibition of IL-6 release, human PBMCs (n=5 donors), 10 pM rhIL-1β",human IL-1β [2],56 pM
same,"IC50, inhibition of IL-6 release, human PBMCs (n=5 donors), 30 pM rhIL-1β",human IL-1β [2],0.12 nM
same,"IC90, inhibition of IL-6 release, human PBMCs (n=5 donors), 10 pM rhIL-1β",human IL-1β [2],0.226 nM
same,"IC90, inhibition of IL-6 release, human PBMCs (n=5 donors), 30 pM rhIL-1β",human IL-1β [2],0.409 nM
same,"IC30, inhibition of G-CSF release, cynomolgus lung fibroblasts (CLF), 15 pM rcynoIL-1β",cynomolgus IL-1β [3],0.129 nM
same,"IC30, inhibition of IL-6 release, cynomolgus dermal fibroblasts (CDF), 5 pM rcynoIL-1β",cynomolgus IL-1β [3],93 pM
same,"IC30, inhibition of IL-6 release, cynomolgus lung fibroblasts (CLF), 15 pM rcynoIL-1β",cynomolgus IL-1β [3],0.192 nM
same,"IC50, inhibition of G-CSF release, cynomolgus lung fibroblasts (CLF), 15 pM rcynoIL-1β",cynomolgus IL-1β [3],0.261 nM
same,"IC50, inhibition of IL-6 release, cynomolgus dermal fibroblasts (CDF), 5 pM rcynoIL-1β",cynomolgus IL-1β [3],0.156 nM
same,"IC50, inhibition of IL-6 release, cynomolgus lung fibroblasts (CLF), 15 pM rcynoIL-1β",cynomolgus IL-1β [3],0.376 nM
same,"IC90, inhibition of G-CSF release, cynomolgus lung fibroblasts (CLF), 15 pM rcynoIL-1β",cynomolgus IL-1β [3],1.63 nM
same,"IC90, inhibition of IL-6 release, cynomolgus dermal fibroblasts (CDF), 5 pM rcynoIL-1β",cynomolgus IL-1β [3],0.594 nM
same,"IC90, inhibition of IL-6 release, cynomolgus lung fibroblasts (CLF), 15 pM rcynoIL-1β",cynomolgus IL-1β [3],2.14 nM
same,"IC30, inhibition of rhIL-1β-induced CXCL5 release, human whole blood (5 donors)",human IL-1β [4],0.364 nM
same,"IC30, inhibition of rhIL-1β-induced G-CSF release, human whole blood (5 donors)",human IL-1β [4],0.299 nM
same,"IC30, inhibition of rhIL-1β-induced IL-6 release, human whole blood (5 donors)",human IL-1β [4],0.36 nM
same,"IC50, inhibition of rhIL-1β-induced CXCL5 release, human whole blood (5 donors)",human IL-1β [4],0.603 nM
same,"IC50, inhibition of rhIL-1β-induced G-CSF release, human whole blood (5 donors)",human IL-1β [4],0.52 nM
same,"IC50, inhibition of rhIL-1β-induced IL-6 release, human whole blood (5 donors)",human IL-1β [4],0.595 nM
same,"IC90, inhibition of rhIL-1β-induced CXCL5 release, human whole blood (5 donors)",human IL-1β [4],2.24 nM
same,"IC90, inhibition of rhIL-1β-induced G-CSF release, human whole blood (5 donors)",human IL-1β [4],2.18 nM
same,"IC90, inhibition of rhIL-1β-induced IL-6 release, human whole blood (5 donors)",human IL-1β [4],2.18 nM
same,Kd,rat IL-1β,74.5 nM
same,koff,rat IL-1β,0.0574 s⁻¹
same,kon,rat IL-1β,771000 M⁻¹ s⁻¹
same,Kd,cynomolgus IL-1β [5],0.07 nM
same,koff,cynomolgus IL-1β [5],0.000209 s⁻¹
same,kon,cynomolgus IL-1β [5],3.01e+06 M⁻¹ s⁻¹
same,Kd,human IL-1β [6],0.064 nM
same,koff,human IL-1β [6],0.000141 s⁻¹
same,kon,human IL-1β [6],2.2e+06 M⁻¹ s⁻¹
